Experimental data published in patent publication US20250235545A1, “POLYPEPTIDE CONJUGATE AND USE THEREOF” (SHANGHAI CHIXI BIOMEDICAL TECHNOLOGY CO., LTD, priority 2024, published 2025).
In brackets after ≈: the same amount, converted by molar mass. Read-outs that look alike come from different tables or passages of the source. Where a SMILES comes first, the peptide text is derived from it. The star is where a group is joined. Belotecan = CC[C@@]1(O)C(=O)OCc2c1cc1n(c2=O)Cc2c-1nc1ccccc1c2CCN(C(C)C)*; X8 = CC[C@@]1(O)C(=O)OCc2c1cc1n(c2=O)Cc2c-1nc1ccccc1c2CCN(C1CCCC1)*; X7 = CC[C@@]1(O)C(=O)OCc2c1cc1n(c2=O)Cc2c-1nc1ccccc1c2CCN(C)*; Propanoyl(3-maleimido) = O=C1C=CC(=O)N1CCC(=O)*; PEG6 = NCCOCCOCCOCCOCCOCCOCCC(=O)O

How the values were obtained:
[1] = Homogenate activation efficiency, heart tissue (Examples 28, 37); assay type: in vitro ADME; conditions: pH 5.0, 37° C., 2 h; Table 10
[2] = Tumor homogenate activation efficiency, sarcoma tissue (Examples 28, 37); assay type: in vitro ADME; conditions: pH 5.0, 37° C., 2 h; Table 10
Outline: (§1)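 Each conjugate, dissolved at 1 mg/ml in acidic MES saline (pH 5.0), was exposed to 100 μg homogenate for 2 h at 37° C; released Belotecan was quantified by HPLC peak areas.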

[3] = system: colo320 colorectal cancer tumor model
Outline: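 Female BALB/c nude mice, 6–8 weeks old, received 7.5×10^6 colo320 cells subcutaneously in the right chest. Once tumors reached at least 120 mm^3 they were randomized three per group. Treatment with test agents or saline control was given once weekly for four weeks.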

[4] = system: A549 (non-small cell lung cancer); assay: cells; assay type: cell-based; conditions: CCK8, 48 h; Table 6
Outline: (§2)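 Cells in RPMI1640 or high-glucose DMEM with 10% FBS, P/S and 1 mM sodium pyruvate were seeded at 5,000 cells/well into graded drug concentrations, with 0.1% DMSO controls, in triplicate. After 48 h at 37° C/5% CO2, CCK8 was added for about 2 h and absorbance read at 450 nm; survival and IC50 were calculated.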

[5] = system: SKBR3 (breast cancer tissue); assay: cells; assay type: cell-based; conditions: CCK8, 48 h; Table 6
Outline: as §2

SJSA-1 (sarcoma tissue) = assay: cells; assay type: cell-based; conditions: CCK8, 48 h; Table 6
Outline: as §2

A2780 (ovarian cancer) = assay: cells; assay type: cell-based; conditions: CCK8, 48 h; Table 6
Outline: as §2

[6] = MTD determination in mice (Examples 27, 36, 44); assay type: in vivo; conditions: female, mouse, in vivo; mice, monitored for 14 d; Table 9
Source text: Test animals: 6-8 weeks old mice, all female; mice were grouped randomly, with six mice in each group, administered with drugs at different concentration gradients separately and monitored for 14 d. A mouse was euthanized at a loss of 20% of its initial weight and deemed to have died of poisoning.

[7] = system: sarcoma SJSA-1 tumor model; conditions: Table 7
Outline: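 SJSA-1 cells (2×10^7, DMEM/10% FBS, under 15 passages) implanted subcutaneously in right chest of female BALB/c nude mice, 6-8 weeks old. At ≥100 mm^3, randomized three per group; dosing once weekly for three weeks, saline as control, day 1 = first treatment.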

[8] = system: colo320 (colorectal cancer tissue); assay: cells; assay type: cell-based; conditions: CCK8, 48 h; Table 6
Outline: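 Colo320 cells, 5,000 per well, exposed to drug concentration series for 48 h at 37 °C, 5% CO2 (0.1% DMSO controls). Viability by CCK8, absorbance at 450 nm after about 2 h. Survival rates and IC50 calculated.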

[9] = Tumor homogenate activation efficiency, non-small cell lung cancer tissue (Examples 28, 37); assay type: in vitro ADME; conditions: pH 5.0, 37° C., 2 h; Table 10
Outline: as §1

[10] = Tumor homogenate activation efficiency, ovarian cancer tissue (Examples 28, 37); assay type: in vitro ADME; conditions: pH 5.0, 37° C., 2 h; Table 10
Outline: as §1

[11] = Tumor homogenate activation efficiency, colorectal cancer tissue (Example 37); assay type: in vitro ADME; conditions: pH 5.0, 37° C., 2 h; Table 10
Description: Buffer preparation: 50 mM PH buffer (MES), 250 mM NaCl, pH adjusted to 5.0 with 0.5 M of sodium hydroxide.
The polypeptide conjugate was prepared into a 1 mg/ml solution with pH 5.0 buffer, 100 μg of tumor tissue homogenate was added, (the tumor tissue homogenate was the homogenate of tumor tissues prepared with a Jingxin F6/10 handheld homogenizer), and the solution was placed at 37° C. for 2 h. The tumor tissue homogenate could effectively activate the polypeptide conjugate and release Belotecan, and the activation efficiencies of the drugs in tumor tissues were compared by HPLC allowing determination of a decrease in the compounds and an increase in Belotecan:
Release percentage=peak area of Belotecan/total peak area of Belotecan and all other Belotecan-containing compounds

[12] = Tumor homogenate activation efficiency, breast cancer tissue (Examples 28, 37); assay type: in vitro ADME; conditions: pH 5.0, 37° C., 2 h; Table 10
Outline: as §1

[13] = 15 mg/kg once a week for four weeks, Table 8
[14] = 45 mg/kg once a week for four weeks, Table 8
[15] = 45 mg/kg once a week for three weeks
[16] = Table 13 (Example 42), dose 45 mg/kg, once a week for four weeks, BALB/c mice
[17] = Table 14 (Example 43), dose 45 mg/kg, once a week for four weeks, BALB/c mice
[18] = 15 mg/kg once a week for three weeks

Structure (SMILES)	Percentage of release efficiency (%) Heart tissue [1] [%]	Percentage of release efficiency (%) Sarcoma tissue (SJSA1) [2] [%]	Mouse weight (%) [3, 13]	Mouse weight (%) [3, 14]	IC50 Non-small cell lung cancer tissue (A549) [4] [µg/mL]	IC50 Breast cancer tissue (SKBR3) [5] [µg/mL]	IC50 Sarcoma tissue (SJSA-1) (SJSA-1 (sarcoma tissue)) [µg/mL]	IC50 Ovarian cancer tissue (A2780) (A2780 (ovarian cancer)) [µg/mL]	MTD at 14 d [6] [mg/kg]	Mouse weight (%) [7, 15]	IC50 Colorectal cancer tissue (colo320) [8] [µg/mL]	Percentage of release efficiency (%) Non-small cell lung cancer tissue (A549) [9] [%]	Percentage of release efficiency (%) Ovarian cancer tissue (A2780) [10] [%]	Percentage of release efficiency (%) Colorectal cancer tissue (colo320) [11] [%]	Percentage of release efficiency (%) Breast cancer tissue (SKBR3) [12] [%]	colo320 (colorectal cancer cell) growth rate (%) [3, 14] [%]	colo320 (colorectal cancer cell) mean tumor volume (mm^3) [3, 14] [mm^3]	Mouse weight (%) [3, 16]	colo320 (colorectal cancer cell) growth rate (%) [3, 16] [%]	Mouse weight (%) [3, 17]	other results
CC[C@@]1(O)C(=O)OCc2c1cc1n(c2=O)Cc2c-1nc1ccccc1c2CCN(C(=O)[C@H](CC(C)C)NC(=O)[C@H](CC(N)=O)NC(=O)[C@H](C)NC(=O)[C@H](C)NC(=O)CCOCCOCCOCCOCCOCCOCCNC(=O)CCN1C(=O)C=CC1=O)C1CCCC1 [MI-6PEG-AANL-D8] ({Propanoyl(3-maleimido)-PEG6}-AANL-X8)	2.2	81.1	+33%	+15%	2.27 (≈ 1.73 µM)	1.98 (≈ 1.51 µM)	1.54 (≈ 1.17 µM)	1.27 (≈ 0.965 µM)	200	+17%	2.97 (≈ 2.26 µM)	68.4	71	78.9	70.2						
CC[C@@]1(O)C(=O)OCc2c1cc1n(c2=O)Cc2c-1nc1ccccc1c2CCN(C)C(=O)[C@H](CC(C)C)NC(=O)[C@H](Cc1ccccc1)NC(=O)CNC(=O)CNC(=O)CCOCCOCCOCCOCCOCCOCCNC(=O)CCN1C(=O)C=CC1=O [MI-6PEG-GGFL-D1] ({Propanoyl(3-maleimido)-PEG6}-GGFL-X7)	1.4	73.5		+19%					120	+11%		82.5	80	86.7	69.5	766.16	900.6	+19%	766.16	+19%	colo320 (colorectal cancer cell) mean tumor volume (mm^3) [3, 16]: 900.6 mm^3; colo320 (colorectal cancer cell) growth rate (%) [3, 17]: 766.16%; colo320 (colorectal cancer cell) mean tumor volume (mm^3) [3, 17]: 900.6 mm^3; SJSA-1 (sarcoma tissue) growth rate (%) [7, 15]: 1181.64%; SJSA-1 (sarcoma tissue) mean tumor volume (mm^3) [7, 15]: 1485.2 mm^3
CC[C@@]1(O)C(=O)OCc2c1cc1n(c2=O)Cc2c-1nc1ccccc1c2CCN(C(=O)[C@H](CC(C)C)NC(=O)[C@H](Cc1ccccc1)NC(=O)CNC(=O)CNC(=O)CCOCCOCCOCCOCCOCCOCCNC(=O)CCN1C(=O)C=CC1=O)C(C)C [MI-6PEG-GGFL-Belotecan] ({Propanoyl(3-maleimido)-PEG6}-GGFL-Belotecan)	1.8	68	+27%	+5%	2.21 (≈ 1.71 µM)	3.69 (≈ 2.85 µM)	1.24 (≈ 0.958 µM)	1.91 (≈ 1.48 µM)	100	+22%	2.86 (≈ 2.21 µM)	77.3	73.6	83.1	73.2	671.56	789.4	+5%	671.56	+5%	colo320 (colorectal cancer cell) growth rate (%) [3, 13]: 994.05%; colo320 (colorectal cancer cell) mean tumor volume (mm^3) [3, 13]: 1254.2 mm^3; colo320 (colorectal cancer cell) mean tumor volume (mm^3) [3, 16]: 789.4 mm^3; colo320 (colorectal cancer cell) growth rate (%) [3, 17]: 671.56%; colo320 (colorectal cancer cell) mean tumor volume (mm^3) [3, 17]: 789.4 mm^3; Mouse weight (%) [7, 18]: +27%; SJSA-1 (sarcoma tissue) growth rate (%) [7, 18]: 1134.95%; SJSA-1 (sarcoma tissue) mean tumor volume (mm^3) [7, 18]: 1278.6 mm^3; SJSA-1 (sarcoma tissue) growth rate (%) [7, 15]: 995.32%; SJSA-1 (sarcoma tissue) mean tumor volume (mm^3) [7, 15]: 1254.1 mm^3
CC[C@@]1(O)C(=O)OCc2c1cc1n(c2=O)Cc2c-1nc1ccccc1c2CCN(C)C(=O)[C@H](CC(C)C)NC(=O)[C@H](CC(N)=O)NC(=O)[C@H](C)NC(=O)[C@H](C)NC(=O)CCOCCOCCOCCOCCOCCOCCNC(=O)CCN1C(=O)C=CC1=O [MI-6PEG-AANL-D1] ({Propanoyl(3-maleimido)-PEG6}-AANL-X7)	3	81.2		+16%	3.05 (≈ 2.42 µM)	3.25 (≈ 2.58 µM)	2.33 (≈ 1.85 µM)	2.09 (≈ 1.66 µM)	200	+29%	3.82 (≈ 3.03 µM)	69.5	66.4	72.4	80					+16%	
